Laboratory results from the Human Domainome abundance scans (Beltran et al. 2025).

B1: POU domain, class 2, transcription factor 2, residues 200 to 269; numbered along this chain, P09086 (parent)
chain: LEELEQFARTFKQRRIKLGFTQGDVGLAMGKLYGNDFSQTTISRFEALNLSFKNMCKLKPLLEKWLNDAE

Variants of: B1
Experiment: abundance fitness (aPCA) (normalised: wild type 0, dead -1); higher = more abundant; growth selection in yeast, the domain comes from the species named
Settings: Homo sapiens

Abundance fitness: each site, then its substitutions
F20: S -0.207, T -0.317, V -0.13, W -0.065, Y -0.111
T21: A -0.138, C -0.212, E -0.165, F -0.625, G -0.135, H -0.286, I -0.746, K -0.173, L -0.323, M -0.26, Q -0.205, R -0.14, S -0.044, V -0.573, W -0.633, Y -0.77
Q22: A 0.004, C -0.004, F -0.097, G -0.187, H -0.062, I -0.12, K -0.042, L -0.025, M -0.054, N -0.351, P -0.071, R -0.11, S -0.093, T -0.045, V -0.059, W -0.006, Y -0.423
G23: A 0.04, D -0.055, E -0.04, F -0.01, H -0.056, I -0.004, K 0.029, L -0.021, M -0.01, N -0.089, P -0.136, Q -0.07, R -0.004, T -0.102, V -0.029, W -0.076, Y -0.218
D24: A -0.07, C -0.172, E -0.093, F -0.158, G -0.113, H -0.065, I -0.792, K -0.202, L -0.215, M -0.125, N -0.091, P -0.918, Q 0.003, R -0.177, S -0.091, T -0.199, V -0.169, W -0.285, Y -0.095
V25: A -0.01, C -0.229, E -0.926, F -0.548, G -1.05, H -0.996, I -0.098, K -0.894, M -0.291, P -0.915, Q -1.03, R -0.696, S -0.453, T -0.302, W -0.692
G26: A -0.067, C -0.105, D 0.047, E -0.023, F -0.18, H -0.109, I -0.157, K -0.113, L -0.064, M -0.131, P -0.299, Q 0.042, R -0.165, T -0.014, V -0.022, W -0.023, Y -0.085
L27: A 0.041, C -0.057, D -0.012, E -0.059, G -0.049, H -0.043, I -0.069, M -0.033, N -0.019, P -0.39, R 0.006, S -0.073, T -0.092, V 0.015, W -0.105, Y 0.026
A28: C -0.108, D 0.024, E 0.06, F -0.032, G -0.098, H -0.064, I -0.167, K -0.021, M -0.047, N -0.095, P -0.616, Q 0.061, R -0.027, S -0.079, T 0.031, V -0.01, Y -0.101
M29: A -0.131, C -0.076, D -0.314, E -0.976, F -0.146, H -0.681, I -0.211, K -0.95, L 0.072, N -0.616, P -0.664, Q -0.463, R -0.655, S -0.552, T -0.075, V 0.003, W -0.557, Y -0.611
G30: A -0.041, C -0.068, D -0.068, F -0.001, H -0.013, I -0.083, K -0.071, L -0.044, N 0.019, P -0.223
